Source: patent US20250388666A1 (BRIGHAM AND WOMEN S HOSPITAL, published 2025)

T1: CEACAM1-HIS (Sino Biologics Inc.) (Homo sapiens (Human), UniProt P13688 35-428)
T1 construct: bought; not shown: His tag
T1 sequence: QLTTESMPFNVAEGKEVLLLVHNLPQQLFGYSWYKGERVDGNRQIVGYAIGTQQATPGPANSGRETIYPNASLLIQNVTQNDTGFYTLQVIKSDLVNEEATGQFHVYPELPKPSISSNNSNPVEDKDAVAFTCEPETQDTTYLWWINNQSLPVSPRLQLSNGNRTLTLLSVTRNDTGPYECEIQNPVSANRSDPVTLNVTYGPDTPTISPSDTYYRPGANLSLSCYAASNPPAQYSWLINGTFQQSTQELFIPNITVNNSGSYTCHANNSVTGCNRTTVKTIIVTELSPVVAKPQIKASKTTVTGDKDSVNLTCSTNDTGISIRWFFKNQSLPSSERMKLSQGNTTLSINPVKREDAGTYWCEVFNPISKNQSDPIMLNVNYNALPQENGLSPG

T2: human GST-CEACAM1 (human, UniProt P13688 35-141, limits assumed)
T2 construct: printed both as GST-CEACAM1 and CEACAM1-GST; also called human CEACAM1-GST protein; hCEACAM1-GST; not shown: GST tag
T2 sequence: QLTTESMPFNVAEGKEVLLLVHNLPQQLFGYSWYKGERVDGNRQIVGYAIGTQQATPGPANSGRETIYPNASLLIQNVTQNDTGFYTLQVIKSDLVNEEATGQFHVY


Key:
[1] = target: T1, CEACAM1-HIS (Sino Biologics Inc.); assay: SPR single-cycle, IgG on Protein A
Description: (§1) As an alternative approach to assess the binding of the antibody combinations and the control antibodies to CEACAM1, a kinetic analysis was performed on a Biacore T200 running Biacore T200 Evaluation Software V2.0.1. All experiments were run at 25° C. with HBS-P+ running buffer (pH 7.4).
In order to assess the binding of all Composite Human Antibody™ variants, single cycle kinetic analysis was performed on the supernatants of all the transiently transfected HEK EBNA cells. Purified chimeric antibody and purified chimeric antibody spiked into HEK EBNA media were used as positive controls. Supernatants were diluted in HBS-P+ to a concentration of 1 μg/mL (as determined by an IgG quantitation ELISA). At the start of each cycle, antibodies were loaded onto Fc2, Fc3 and Fc4 of a Protein A chip and captured at a flow rate of 8 μL/min to give an RU of ˜100. The surface was then allowed to stabilize. Single cycle kinetic data was obtained at a flow rate of […] to minimize any potential mass transfer effects. Multiple repeats of the chimeric antibody were performed to check the stability of the surface and analyte over the kinetic cycles. The signal from the reference channel Fc1 (no antibody) was subtracted from that of Fc2, Fc3 and Fc4 to correct for differences in non-specific binding to a reference surface. A 5 point 2-fold dilution range from 3.125 to 50 nM CEACAM1 without regeneration between each concentration was used. The association phase for the 5 injections of increasing concentrations of CEACAM1 was monitored for 150 seconds and a single dissociation phase was measured for 150 seconds following the last injection of CEACAM1. Regeneration of the Protein A was conducted using 2 injections of 10 mM glycine-HCL pH 1.5 followed by a stabilization period of 500 seconds.
In the raw sensorgrams for the single cycle kinetics, the signal from each antibody blank run (no CEACAM1) was subtracted to correct for differences in surface stability.

[2] = target: T2, human GST-CEACAM1; assay: competition ELISA vs murine parent antibody
Description: The binding of the purified chimeric antibody to human CEACAM1 was assessed in a competition ELISA assay. Nunc Immuno MaxiSorp 96 well flat bottom microtitre plates were pre-coated with 1 μg/ml human GST-CEACAM1 in 1×PBS, overnight at 4° C. The following day the plates were blocked for 1 hour at room temperature with 2% BSA/PBS before washing 2× with PBS/0.05% Tween 20 pH 7.4.
The binding of the purified antibodies to human CEACAM1 were assessed in a competition ELISA assay as described above. The ability of each variant to compete against the murine parental antibody for binding to the GST-CEACAM1 was compared to that of the chimeric antibody (VH0/Vκ0), which was included on each plate.

[3] = target: T1, CEACAM1-HIS (Sino Biologics Inc.); assay: SPR multi-cycle
[4] = target: T1, CEACAM1-HIS (Sino Biologics Inc.); assay: SPR multi-cycle, IgG on Protein A
Description: as §1
For multi-cycle kinetic analysis purified antibody was immobilized at a protein concentration of 1 μg/mL in HBS-P+. At the start of each cycle, antibody was captured on Protein A to give an RU of ˜100 and the surface allowed to stabilize. Kinetic data was obtained at a flow rate of 35 μl/min to minimize any potential mass transfer effects. Multiple repeats of the blank (no CEACAM1) and a repeat of a single concentration of the analyte were programmed into the kinetic run in order to check the stability of both the surface and analyte over the kinetic cycles. For kinetic analysis, a 2-fold dilution series was selected from 100 to 1.5625 nM CEACAM1. The association phase of CEACAM1 was monitored initially for 180 seconds. In the subsequent experiment a longer association time (275 seconds) was used in order to better reach steady state. The dissociation phase was measured for 250 seconds. Regeneration of the Protein A surface was conducted using 2 injections of 10 mM glycine-HCL pH 1.5 at the end of each cycle.
The signal from the reference channel Fc1 was subtracted from that of Fc2, Fc3 and Fc4 to correct for differences in non-specific binding to a reference surface, a global Rmax parameter was used in the 1-to-1 binding model. The relative KD compared to the chimeric parental antibody was calculated by dividing the KD of the Composite Human Antibody™ variants by that of the chimeric parental antibody on the same chip.

Binder	Kd [1]	relative KD to chimeric parental antibody [1]	average relative IC50 (normalized to chimeric antibody) [2]	average relative KD to chimeric parental antibody [3]	relative KD to chimeric parental antibody expt 1 [3]	relative KD to chimeric parental antibody expt 2 [3]	Kd [4]	koff [4]	kon [4]	relative KD to chimeric parental antibody [4]
VH1/Vκ1 (antibody, V domains shown) VH: EVQLLESGGGLVQPGGSLRLSCAASGFIFSSHGMSWVRQAPGKGLEWVATISSGGTYTYYPDSVKGRFTISRDNSKNTLYLQMNSLKAEDTAMYYCARHDFDYDAAWFAYWGQGTLVTVSS VL: QIVLTQSPALLSLSPGERATMSCSANSSVSYMYWYRQKPGQAPKPWIYLTSNLASGVPARFSGSGSGTDYTLTISSLEAEDFATYYCQQWSSNPPTFGQGTKLEIK	93.4 nM	2.2 ratio	1.5 ratio	1.45 ratio	1.5 ratio	1.4 ratio	38.1 nM	0.00384 s⁻¹	101000 M⁻¹ s⁻¹	1.4 ratio
VH1/Vκ2 (antibody, V domains shown) VH: EVQLLESGGGLVQPGGSLRLSCAASGFIFSSHGMSWVRQAPGKGLEWVATISSGGTYTYYPDSVKGRFTISRDNSKNTLYLQMNSLKAEDTAMYYCARHDFDYDAAWFAYWGQGTLVTVSS VL: EIVLTQSPATLSLSPGERATLSCRANSSVSYMYWYQQKPGQAPRPWIYLTSNRATGVPARFSGSGSGTDYTLTISSLEPEDFATYYCQQWSSNPPTFGQGTKLEIK	148 nM	3.4 ratio	1.3 ratio	1.46 ratio	1.66 ratio	1.27 ratio	28.3 nM	0.00551 s⁻¹	195000 M⁻¹ s⁻¹	1.27 ratio
VH2/Vκ1 (antibody, V domains shown) VH: EVQLLESGGGLVQPGGSLRLSCAASGFIFSSHGMSWVRQAPGKGLEWVATISSGGTYTYYPDSVKGRFTISRDNSKNTLYLQMNSLRAEDTAMYYCARHDFDYDAAWFAYWGQGTLVTVSS VL: QIVLTQSPALLSLSPGERATMSCSANSSVSYMYWYRQKPGQAPKPWIYLTSNLASGVPARFSGSGSGTDYTLTISSLEAEDFATYYCQQWSSNPPTFGQGTKLEIK	180 nM	4.2 ratio	1.7 ratio	1.31 ratio	1.39 ratio	1.22 ratio	33.3 nM	0.0052 s⁻¹	156000 M⁻¹ s⁻¹	1.22 ratio
VH2/Vκ2 (antibody, V domains shown) VH: EVQLLESGGGLVQPGGSLRLSCAASGFIFSSHGMSWVRQAPGKGLEWVATISSGGTYTYYPDSVKGRFTISRDNSKNTLYLQMNSLRAEDTAMYYCARHDFDYDAAWFAYWGQGTLVTVSS VL: EIVLTQSPATLSLSPGERATLSCRANSSVSYMYWYQQKPGQAPRPWIYLTSNRATGVPARFSGSGSGTDYTLTISSLEPEDFATYYCQQWSSNPPTFGQGTKLEIK	138 nM	3.2 ratio	1.6 ratio	1.27 ratio	1.29 ratio	1.25 ratio	27.8 nM	0.00496 s⁻¹	179000 M⁻¹ s⁻¹	1.25 ratio
VH2/Vκ4 (antibody, IgG4, V domains shown, IgG4 (S241P), kappa) VH: EVQLLESGGGLVQPGGSLRLSCAASGFSFSDYYLYWVRQAPGKGLEWVATISVGGGNTSYADSVKGRFTISRDNSKNTLYLQMNSLRAEDTAMYYCTRGLYYGPAWFAYWGQGTLVTVSS VL: not shown	77.8 nM	1.8 ratio	7.2 ratio	–	–	–	–	–	–	–
VH0/Vκ1 (antibody, V domains shown) VH: EVQLVESGGDLVKPGGSLKLACAASGFIFSSHGMSWVRQTPDKRLEWVATISSGGTYTYYPDSVKGRFTISRDNDKNTLYLQMNSLKSEDTAMYYCARHDFDYDAAWFAYWGQGTLVTVSS VL: QIVLTQSPALLSLSPGERATMSCSANSSVSYMYWYRQKPGQAPKPWIYLTSNLASGVPARFSGSGSGTDYTLTISSLEAEDFATYYCQQWSSNPPTFGQGTKLEIK	56.1 nM	1.3 ratio	2.5 ratio	–	–	–	–	–	–	–
VH1/Vκ0 (antibody, IgG4, V domains shown, IgG4 (S241P), kappa) VH: EVQLLESGGGLVQPGGSLRLSCAASGFSFSDYYLYWVRQAPGKGLEWVATISVGGGNTSYPDSVKGRFTISRDNSKNTLYLQMNSLRAEDTAMYYCTRGLYYGPAWFAYWGQGTLVTVSS VL: not shown	76.6 nM	1.8 ratio	1 ratio	–	–	–	–	–	–	–
